Assay results as given in article PMC8285477, “The molecular basis of regulation of bacterial capsule assembly by Wzc” (Nature Communications, 2021).

How the values were obtained:
[1] = target: Wzc^K540M triple (715, 717 and 718) Tyr to Glu mutant (E. coli E69 (O9a:K30)) (UniProt P76387); assay: EM (kind not stated); particles of purified Tyr to Glu mutants of Wzc^K540M on EM grids, percentage of octamers (Supplementary Fig. 8a)
[2] = target: Wzc^K540MΔMotif3 (E. coli E69 (O9a:K30)) (UniProt P76387); assay: cryo-EM 2D classification of particles; purified protein ~1.8-2 mg/ml vitrified on grids, reference-free 2D class averages
[3] = target: Wzc^K540M double (717 and 718) Tyr to Glu mutant (E. coli E69 (O9a:K30)) (UniProt P76387); assay: EM (kind not stated); particles of purified Tyr to Glu mutants of Wzc^K540M on EM grids, percentage of octamers (Supplementary Fig. 8a)
[4] = target: Wzc^K540M4YE (E. coli E69 (O9a:K30)); assay: cryo-EM 2D classification of particles; purified protein ~1.8-2 mg/ml vitrified on grids, reference-free 2D class averages
[5] = target: Wzc^K540M4YE (E. coli E69 (O9a:K30)); assay: cryo-EM structure; purified protein ~2 mg/ml in LMNG, apo and with ADP and Mg2+; C1 and C8 reconstructions
[6] = target: Wzc^K540M (E. coli E69 (O9a:K30)); assay: negative-stain EM; purified protein around 0.05 mg/ml on carbon-coated grids, 0.75% uranyl formate
[7] = target: Wzc^K540M (E. coli E69 (O9a:K30)); assay: cryo-EM structure; purified protein ~2 mg/ml in LMNG, apo and with ADP and Mg2+; C1 and C8 reconstructions
[8] = target: Wzb treated Wzc (E. coli E69 (O9a:K30), UniProt P76387 1-720); assay: cryo-EM 2D classification of particles; purified protein ~1.8-2 mg/ml vitrified on grids, reference-free 2D class averages; details: both partners purified

**Q.** For “Wzc^K540M triple (715, 717 and 718) Tyr to Glu mutant (from UniProt P76387 1-720) (enzyme)”, which stoichiometry N [1] is on record?
**A.** 8

**Q.** How did the stoichiometry N [2] turn out when “Wzc^K540MΔMotif3 (from UniProt P76387 1-720) (enzyme)” was run?
**A.** 8

**Q.** For “Wzc^K540M double (717 and 718) Tyr to Glu mutant (from UniProt P76387 1-720) (enzyme)”, which stoichiometry N [3] is on record?
**A.** 8

**Q.** Which percent of particles that are octamers [4] does the source give for “Wzc^K540M4YE (from UniProt P76387 1-720) (enzyme)” here?
**A.** 50%

**Q.** And the stoichiometry N [5]?
**A.** 8

**Q.** For “Wzc^K540M (from UniProt P76387 1-720) (enzyme)”, which stoichiometry N [6] is on record?
**A.** 8

**Q.** And the stoichiometry N [7]?
**A.** 8

B1: Wzb treated Wzc (enzyme)
chain: MTSVTSKQSTILGSDEIDLGRVIGELIDHRKLIISITSVFTLFAILYALLATPIYETDALIQIEQKQGNAILSSLSQVLPDGQPQSAPETALLQSRMILGKTIDDLNLQIQIEQKYFPVIGRGLARLMGEKPGNIDITRLYLPDSDDISNNTPSIILTVKDKENYSINSDGIQLNGVVGTLLNEKGISLLVNEIDAKPGDQFVITQLPRLKAISDLLKSFSVADLGKDTGMLTLTLTGDNPKRISHILDSISQNYLAQNIARQAAQDAKSLEFLNQQLPKVRAELDSAEDKLNAYRKQKDSVDLNMEAKSVLDQIVNVDNQLNELTFREAEVSQLYTKEHPTYKALMEKRQTLQEEKSKLNKRVSSMPSTQQEVLRLSRDVESGRAVYLQLLNRQQELNIAKSSAIGNVRIIDNAVTDPNPVRPKKTIIIVIGVVLGLIVSVVLVLFQVFLRRGIESPEQLEEIGINVYASIPISEWLTKNARQSGKVRKNQSDTLLAVGNPADLAVEAIRGLRTSLHFAMMEAKNNVLMISGASPSAGKTFISSNLAATIAITGKKVLFIDADLRKGYAHKMFGHKNDKGLSEFLSGQAAAEMIIDKVEGGGFDYIGRGQIPPNPAELLMHPRFEQLLNWASQNYDLIIIDTPPILAVTDAAIIGRYAGTCLLVARFEKNTVKEIDVSMKRFEQSGVVVKGCILNGVVKKASSYYRYGHNHYGYSYYDKK
modifications: dephosphorylated by phosphatase Wzb; about 0.1% octameric particles; C-terminal His6 omitted; the PDB entity is the K540M construct, reverted to K540 / dephosphorylated by phosphatase Wzb; about 0.1%
**Q.** Which “stoichiometry N” value [8] does the source give for B1 here?
**A.** 8
